In the supplement of paper PMC10065799, “High-throughput profiling of sequence recognition by tyrosine kinases and SH2 domains using bacterial peptide display” (eLife, 2023):

Legend:
c-Src = test: phosphorylation enrichment, bacterial display (enrichment ratio); higher = better substrate or ligand; peptides without Tyr show the background
EPHB1 = EPHB1 (UniProt P54762); test: as above
MERTK = MERTK (UniProt Q12866); test: as above
c-Abl (mouse) = test: as above
Fyn = Fyn (UniProt P06241); test: as above
Fes = Fes (UniProt P07332); test: as above
Fer (mouse) = test: as above
Hck = Hck (UniProt P08631); test: as above
FGFR3 = FGFR3 (UniProt P22607); test: as above
FGFR1 = FGFR1 (UniProt P11362); test: as above
Jak2 = Jak2 (UniProt O60674); test: as above
EPHB2 = EPHB2 (UniProt P29323); test: as above
AncSZ = test: as above
SHP2-C SH2 = test: SH2 binding enrichment of the phosphorylated peptide, bacterial display (enrichment ratio); higher = better substrate or ligand; peptides without Tyr show the background
Grb2 SH2 = Grb2 SH2 (UniProt P62993); test: as above
c-Src SH2 = test: as above
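Wherever SH2 binding enrichment of the phosphorylated peptide, bacterial display is given: peptide library displayed on the E. coli surface as eCPX fusions, selected cells deep-sequenced, score is each peptide's frequency after selection divided by its frequency in the input.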
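Wherever phosphorylation enrichment, bacterial display is given: 11-residue human phosphosite peptides and single-mutation variants displayed on the E. coli surface, counted by deep sequencing, each peptide's frequency after selection divided by its frequency in the unselected input library; frequency after pTyr selection over input frequency; kinase dosed for 20-30% of maximal phosphorylation in three min.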

Fes, sequence (P07332 whole entry, looked up): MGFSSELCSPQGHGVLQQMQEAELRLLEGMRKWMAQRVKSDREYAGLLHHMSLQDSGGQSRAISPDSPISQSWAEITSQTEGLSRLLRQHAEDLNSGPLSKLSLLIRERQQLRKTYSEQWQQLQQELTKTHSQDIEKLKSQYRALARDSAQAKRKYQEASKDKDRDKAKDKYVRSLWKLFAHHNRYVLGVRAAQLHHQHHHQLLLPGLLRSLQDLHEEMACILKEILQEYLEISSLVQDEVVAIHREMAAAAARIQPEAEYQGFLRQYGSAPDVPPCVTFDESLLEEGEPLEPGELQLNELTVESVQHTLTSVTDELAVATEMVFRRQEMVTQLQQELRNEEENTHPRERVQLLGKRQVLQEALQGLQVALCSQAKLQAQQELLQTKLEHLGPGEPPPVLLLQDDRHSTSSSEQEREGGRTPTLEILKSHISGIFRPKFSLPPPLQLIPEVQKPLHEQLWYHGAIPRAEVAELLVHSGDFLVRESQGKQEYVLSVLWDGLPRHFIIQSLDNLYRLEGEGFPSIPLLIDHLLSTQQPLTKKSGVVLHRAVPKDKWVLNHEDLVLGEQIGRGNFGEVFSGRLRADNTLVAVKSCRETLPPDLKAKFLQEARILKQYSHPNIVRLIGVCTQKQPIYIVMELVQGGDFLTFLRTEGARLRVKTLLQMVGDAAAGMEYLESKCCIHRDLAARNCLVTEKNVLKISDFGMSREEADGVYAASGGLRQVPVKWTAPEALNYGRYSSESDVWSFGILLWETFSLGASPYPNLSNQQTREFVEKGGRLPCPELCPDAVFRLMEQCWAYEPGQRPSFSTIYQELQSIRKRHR
MERTK, sequence (Q12866 whole entry, looked up): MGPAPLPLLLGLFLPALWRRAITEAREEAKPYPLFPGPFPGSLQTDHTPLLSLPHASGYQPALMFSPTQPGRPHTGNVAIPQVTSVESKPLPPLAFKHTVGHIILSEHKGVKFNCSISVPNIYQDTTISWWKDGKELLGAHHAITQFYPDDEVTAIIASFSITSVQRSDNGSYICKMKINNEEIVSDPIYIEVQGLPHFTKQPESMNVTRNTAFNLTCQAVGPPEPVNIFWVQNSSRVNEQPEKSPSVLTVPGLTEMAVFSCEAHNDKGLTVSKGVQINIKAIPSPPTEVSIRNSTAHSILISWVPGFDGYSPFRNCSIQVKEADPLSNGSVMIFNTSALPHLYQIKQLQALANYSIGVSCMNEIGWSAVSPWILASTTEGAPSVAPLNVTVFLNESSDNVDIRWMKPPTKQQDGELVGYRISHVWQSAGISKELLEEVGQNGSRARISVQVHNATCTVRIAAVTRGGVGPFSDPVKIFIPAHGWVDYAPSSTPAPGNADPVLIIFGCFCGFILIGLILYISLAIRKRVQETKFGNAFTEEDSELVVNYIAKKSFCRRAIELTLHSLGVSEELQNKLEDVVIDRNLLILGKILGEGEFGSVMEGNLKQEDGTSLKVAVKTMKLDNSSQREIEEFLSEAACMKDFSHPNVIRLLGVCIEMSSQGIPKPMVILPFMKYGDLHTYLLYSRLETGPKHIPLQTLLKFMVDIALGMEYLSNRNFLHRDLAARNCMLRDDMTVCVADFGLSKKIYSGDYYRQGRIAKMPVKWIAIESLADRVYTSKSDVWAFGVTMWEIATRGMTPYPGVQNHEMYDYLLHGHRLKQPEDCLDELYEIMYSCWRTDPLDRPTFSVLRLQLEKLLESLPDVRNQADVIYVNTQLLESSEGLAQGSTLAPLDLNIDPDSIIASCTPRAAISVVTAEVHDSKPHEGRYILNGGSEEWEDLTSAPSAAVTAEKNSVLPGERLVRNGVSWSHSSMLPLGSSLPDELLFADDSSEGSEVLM
FGFR1, sequence (P11362 whole entry, looked up): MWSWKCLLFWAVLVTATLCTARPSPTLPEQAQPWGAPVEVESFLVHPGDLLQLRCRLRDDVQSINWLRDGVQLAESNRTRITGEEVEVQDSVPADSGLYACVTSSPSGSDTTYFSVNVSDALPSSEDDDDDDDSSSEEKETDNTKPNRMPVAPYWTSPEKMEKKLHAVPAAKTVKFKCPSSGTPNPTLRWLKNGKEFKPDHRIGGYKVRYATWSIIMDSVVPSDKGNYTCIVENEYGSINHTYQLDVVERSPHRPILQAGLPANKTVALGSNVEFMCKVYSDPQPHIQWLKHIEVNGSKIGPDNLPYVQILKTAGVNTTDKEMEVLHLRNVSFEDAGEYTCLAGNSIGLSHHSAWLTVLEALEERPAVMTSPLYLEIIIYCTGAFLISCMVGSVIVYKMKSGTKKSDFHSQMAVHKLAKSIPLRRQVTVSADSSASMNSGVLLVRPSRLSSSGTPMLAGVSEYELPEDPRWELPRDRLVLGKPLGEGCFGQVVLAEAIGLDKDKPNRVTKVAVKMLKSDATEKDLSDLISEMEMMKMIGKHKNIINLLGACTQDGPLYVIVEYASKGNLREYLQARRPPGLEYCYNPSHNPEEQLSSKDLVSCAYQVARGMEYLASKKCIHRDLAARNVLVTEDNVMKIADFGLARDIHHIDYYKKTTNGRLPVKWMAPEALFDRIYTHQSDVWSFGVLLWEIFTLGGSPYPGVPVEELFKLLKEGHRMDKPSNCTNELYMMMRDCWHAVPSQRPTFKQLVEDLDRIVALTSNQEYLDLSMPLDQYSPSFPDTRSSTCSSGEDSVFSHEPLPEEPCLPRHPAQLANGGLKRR
EPHB2, sequence (P29323 whole entry, looked up): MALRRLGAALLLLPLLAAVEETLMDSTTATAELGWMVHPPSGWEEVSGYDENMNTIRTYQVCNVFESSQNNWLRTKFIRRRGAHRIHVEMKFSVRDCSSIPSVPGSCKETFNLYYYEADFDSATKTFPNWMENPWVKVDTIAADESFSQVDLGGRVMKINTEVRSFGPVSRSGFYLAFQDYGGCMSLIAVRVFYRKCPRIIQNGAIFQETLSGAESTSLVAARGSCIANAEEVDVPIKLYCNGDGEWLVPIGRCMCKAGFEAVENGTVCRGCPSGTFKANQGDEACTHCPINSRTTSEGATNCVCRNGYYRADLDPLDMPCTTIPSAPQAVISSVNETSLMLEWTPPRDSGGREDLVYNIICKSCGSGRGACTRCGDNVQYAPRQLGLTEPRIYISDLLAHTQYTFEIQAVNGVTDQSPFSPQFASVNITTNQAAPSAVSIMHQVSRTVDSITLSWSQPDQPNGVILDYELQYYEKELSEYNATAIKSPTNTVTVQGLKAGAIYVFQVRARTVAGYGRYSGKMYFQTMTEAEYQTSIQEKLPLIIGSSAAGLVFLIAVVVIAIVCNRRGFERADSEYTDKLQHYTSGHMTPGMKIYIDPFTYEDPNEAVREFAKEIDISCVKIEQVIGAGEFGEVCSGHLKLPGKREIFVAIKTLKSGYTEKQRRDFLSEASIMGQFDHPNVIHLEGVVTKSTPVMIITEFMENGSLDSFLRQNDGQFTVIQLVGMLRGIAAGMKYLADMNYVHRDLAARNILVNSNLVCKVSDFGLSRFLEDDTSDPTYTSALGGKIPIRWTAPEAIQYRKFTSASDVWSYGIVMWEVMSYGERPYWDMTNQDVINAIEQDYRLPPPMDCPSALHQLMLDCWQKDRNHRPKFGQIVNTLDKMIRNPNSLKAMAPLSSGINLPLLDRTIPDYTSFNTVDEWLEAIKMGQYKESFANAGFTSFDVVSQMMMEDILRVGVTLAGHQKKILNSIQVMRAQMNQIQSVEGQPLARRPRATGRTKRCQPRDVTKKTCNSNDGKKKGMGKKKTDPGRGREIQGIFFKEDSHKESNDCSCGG
Jak2, sequence (O60674 whole entry, looked up): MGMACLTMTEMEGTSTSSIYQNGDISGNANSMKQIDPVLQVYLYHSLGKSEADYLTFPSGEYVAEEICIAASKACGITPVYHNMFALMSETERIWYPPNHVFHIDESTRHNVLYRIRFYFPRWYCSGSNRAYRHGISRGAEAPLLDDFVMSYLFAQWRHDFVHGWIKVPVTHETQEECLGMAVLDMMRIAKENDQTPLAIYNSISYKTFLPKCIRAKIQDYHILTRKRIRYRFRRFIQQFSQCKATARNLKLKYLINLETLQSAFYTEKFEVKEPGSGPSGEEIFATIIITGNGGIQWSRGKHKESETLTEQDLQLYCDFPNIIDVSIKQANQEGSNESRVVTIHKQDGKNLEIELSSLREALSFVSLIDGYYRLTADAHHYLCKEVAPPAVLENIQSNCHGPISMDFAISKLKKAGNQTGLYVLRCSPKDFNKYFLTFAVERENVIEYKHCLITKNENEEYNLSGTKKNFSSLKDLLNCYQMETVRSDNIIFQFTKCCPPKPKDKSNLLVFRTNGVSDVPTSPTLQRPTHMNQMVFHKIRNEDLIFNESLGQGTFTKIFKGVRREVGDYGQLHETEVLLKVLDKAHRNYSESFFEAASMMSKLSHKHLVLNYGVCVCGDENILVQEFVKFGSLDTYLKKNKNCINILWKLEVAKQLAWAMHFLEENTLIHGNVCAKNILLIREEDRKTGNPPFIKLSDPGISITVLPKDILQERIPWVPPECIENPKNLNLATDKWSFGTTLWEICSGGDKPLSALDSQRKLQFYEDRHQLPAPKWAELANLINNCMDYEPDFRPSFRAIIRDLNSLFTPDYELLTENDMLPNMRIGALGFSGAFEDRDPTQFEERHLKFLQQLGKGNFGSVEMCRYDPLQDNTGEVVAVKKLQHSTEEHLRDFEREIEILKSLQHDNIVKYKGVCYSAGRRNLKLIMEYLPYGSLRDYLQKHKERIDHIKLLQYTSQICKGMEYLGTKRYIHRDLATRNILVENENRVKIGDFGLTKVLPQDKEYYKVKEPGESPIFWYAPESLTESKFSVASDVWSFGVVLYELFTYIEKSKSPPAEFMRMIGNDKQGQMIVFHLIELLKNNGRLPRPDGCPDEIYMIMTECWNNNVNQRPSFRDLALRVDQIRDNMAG

| SH2 binding enrichment (SHP2-C SH2) | SH2 binding enrichment (Grb2 SH2) | SH2 binding enrichment (c-Src SH2) | Sequence | phosphorylation enrichment (c-Src) | phosphorylation enrichment (EPHB1) | phosphorylation enrichment (MERTK) | phosphorylation enrichment (c-Abl (mouse)) | phosphorylation enrichment (Fyn) | phosphorylation enrichment (Fes) | phosphorylation enrichment (Fer (mouse)) | phosphorylation enrichment (Hck) | phosphorylation enrichment (FGFR3) | phosphorylation enrichment (FGFR1) | phosphorylation enrichment (Jak2) | phosphorylation enrichment (EPHB2) | phosphorylation enrichment (AncSZ) |
| --- | --- | --- | --- | --- | --- | --- | --- | --- | --- | --- | --- | --- | --- | --- | --- | --- |
| 0.804 | 0.885 | 0.379 | FVSAAYVKKLD [SPTAN1_Y1020_P1017S] | 0.382 | 0.414 | 0.337 | 0.511 | 0.365 | 0.65 | 0.365 | 0.374 | 0.455 | 0.421 | 0.403 | 0.618 | 0.663 |
| 1.68 | 1.96 | 1.52 | FVSIVYNDFGE [TSC2_Y1650_S1653F] | 0.856 | 0.605 | 0.422 | 0.725 | 0.599 | 1.16 | 0.514 | 0.642 | 0.801 | 0.561 | 0.991 | 0.665 | 1.21 |
| 0.655 | 0.887 | 0.517 | FVTCTYSPALN [TP53_Y126_S121F] | 0.535 | 0.603 | 0.346 | 0.828 | 0.449 | 1.32 | 0.557 | 0.516 | 0.71 | 0.464 | 1.07 | 0.501 | 1.29 |
| 0.722 | 1.35 | 0.692 | GCKNRYDEDKP [THAP1_Y14_K16E] | 0.438 | 0.51 | 0.431 | 0.512 | 0.49 | 0.808 | 0.452 | 0.596 | 0.722 | 0.606 | 0.617 | 0.497 | 0.856 |
| 1.32 | 1.5 | 1.32 | GCKNRYDKGKP [THAP1_Y14_D17G] | 0.406 | 0.481 | 0.408 | 0.798 | 0.434 | 0.867 | 0.4 | 0.496 | 1.04 | 0.387 | 0.876 | 0.469 | 0.597 |
| 0.584 | 0.683 | 0.419 | GDGRFYMMEAI [PGM1_Y66_K68M] | 0.88 | 0.569 | 0.46 | 0.735 | 0.51 | 1.26 | 0.539 | 0.459 | 0.731 | 0.511 | 1.16 | 0.553 | 1.04 |

The next lines start with the sequence.

| Sequence | SH2 binding enrichment (SHP2-C SH2) | SH2 binding enrichment (Grb2 SH2) | SH2 binding enrichment (c-Src SH2) | phosphorylation enrichment (c-Src) | phosphorylation enrichment (EPHB1) | phosphorylation enrichment (MERTK) | phosphorylation enrichment (c-Abl (mouse)) | phosphorylation enrichment (Fyn) | phosphorylation enrichment (Fes) | phosphorylation enrichment (Fer (mouse)) | phosphorylation enrichment (Hck) | phosphorylation enrichment (FGFR3) | phosphorylation enrichment (FGFR1) | phosphorylation enrichment (Jak2) | phosphorylation enrichment (EPHB2) | phosphorylation enrichment (AncSZ) |
| --- | --- | --- | --- | --- | --- | --- | --- | --- | --- | --- | --- | --- | --- | --- | --- | --- |
| FSMGCYEFSLG [HMGCL_Y198_I200F_YF] | 0.976 | 0.923 | 0.498 | 1.25 | 1.12 | 0.964 | 1.47 | 0.881 | 1.53 | 3 | 0.706 | 1.14 | 0.733 | 1.2 | 0.984 | 2.26 |
| FSPGSNERETF [NF1_Y2192_Y2192N] | 0.662 | 0.886 | 0.447 | 0.424 | 0.408 | 0.414 | 0.599 | 0.484 | 0.856 | 0.538 | 0.484 | 0.583 | 0.53 | 0.849 | 0.605 | 0.835 |
| FSQQVYRVNLS [FAT4_Y480] | 0.882 | 0.827 | 0.48 | 0.623 | 0.563 | 0.409 | 0.532 | 1.01 | 0.729 | 0.495 | 0.392 | 0.516 | 0.49 | 0.762 | 0.48 | 0.658 |
| FTNELYMMMRD [FGFR1_Y730_C725Y_YF] | 0.661 | 0.844 | 0.604 | 1.29 | 3.18 | 3.53 | 0.57 | 1.1 | 1.24 | 0.752 | 1.99 | 1.53 | 1.54 | 0.938 | 1.69 | 1.37 |
| FTRNFYVWAVL [CYBA_Y88_R90W_YF] | 0.737 | 1.09 | 0.633 | 0.508 | 0.573 | 0.454 | 1.61 | 0.427 | 1.42 | 0.466 | 0.473 | 0.756 | 0.498 | 1.31 | 0.383 | 1.25 |
| GAVGNYSRGLA [MGMT_Y158_G160R] | 0.632 | 0.933 | 0.39 | 0.383 | 0.5 | 0.353 | 0.401 | 0.377 | 0.453 | 0.358 | 0.395 | 0.465 | 0.406 | 0.38 | 0.397 | 0.456 |
| GCVRMYELVHR [GLE1_Y135] | 0.908 | 1.06 | 2.25 | 0.761 | 7.65 | 2.95 | 0.754 | 0.599 | 1.28 | 4.34 | 1.64 | 0.71 | 0.498 | 1.01 | 3.69 | 1.07 |
| GDPVQYNRTTD [MLPH_Y454] | 0.738 | 0.812 | 0.459 | 0.452 | 0.521 | 0.429 | 0.78 | 0.412 | 1.04 | 0.435 | 0.381 | 0.7 | 0.465 | 0.959 | 0.551 | 0.705 |
| GDRPVYSEDEQ [CHST6_Y362_Y358D] | 0.639 | 0.992 | 0.82 | 0.673 | 0.812 | 0.565 | 1.06 | 0.698 | 1.57 | 0.653 | 0.662 | 0.872 | 0.667 | 1.27 | 0.702 | 1.54 |
| GEDEPYSEPFA [APBA1_Y183_YF] | 0.914 | 0.936 | 0.593 | 0.598 | 0.485 | 0.493 | 0.598 | 0.588 | 1.06 | 0.512 | 0.599 | 0.68 | 0.603 | 1.02 | 0.523 | 1.34 |
